# According to patent US20230340145A1, “Methods of Treating High Risk Multiple Myeloma” (Janssen Biotech, Inc., priority 2017, published 2023):
# Assays:
# [1] = tested on: patients with relapsed or refractory multiple myeloma; test: CASTOR (NCT02136134) phase 3 trial, safety (adverse events); assay type: in vivo, human
# Source text: The purpose of this study is to assess the effects of administration of daratumumab when combined with VELCADE® (bortezomib) and dexamethasone compared with VELCADE® (bortezomib) and dexamethasone alone, for participants with relapsed or refractory multiple myeloma. The study was a multicenter, randomized open-label active-controlled phase 3 trial. A prespecified interim analysis has been described in Palumpo et al., NEJM375:754-66, 2016. The clinical trial number for this study is NCT02136134. Daratumumab was administered as an IV infusion at a dose of 16 mg/kg once per week (days 1, 8, and 15) for cycles 1-3, once every 3 weeks (on Day 1) during cycles 4-8, and once every 4 weeks thereafter. […] Dexamethasone was administered orally at 20 mg on Days 1, 2, 4, 5, 8, 9, 11, and 12, for a total dose of 160 mg per cycle. Safety assessments included the evaluation of adverse events, clinical laboratory testing, vital signs, and electrocardiography. The adverse events were graded according to the National Cancer Institute Common Terminology Criteria for Adverse Events, version 4.03.
# [2] = tested on: patients with relapsed or refractory multiple myeloma; test: POLLUX (NCT02076009) phase 3 trial, safety (adverse events); assay type: in vivo, human
# Source text: The purpose of this study was to assess the effects of administration of daratumumab when combined with lenalinomide and dexamethasone compared with lenalinomide and dexamethasone alone, for participants with relapsed or refractory multiple myeloma. The study was a multicenter, randomized open-label active-controlled phase 3 trial. A prespecified interim analysis has been described in Dimopoulos et al., NEJM375: 1319-31, 2016. The clinical trial number for this study is NCT02076009. […] For the DRd, the dose of dexamethasone was split: dexamethasone was administered at a dose of 20 mg before infusion as prophylaxis for infusion-related reactions and 20 mg was administered the next day.
substance,measurement,setting,value
daratumumab,Patients with infusion-related reactions whose events occurred during the first infusion,[1]; % of patients with infusion-related reactions,98.2%
same,Infusion-related reactions of any grade,"[1]; associated with daratumumab, DVd arm",45.3%
same,Grade 4 infusion-related events,[1]; in vivo,no grade 4 events
same,Infusion-related reaction: bronchospasm,[1]; in vivo,9.1%
same,Infusion-related reaction: cough,[1]; in vivo,7.0%
same,Infusion-related reaction: dyspnea,[1]; in vivo,10.7%
same,Patients who discontinued treatment because of infusion-related reactions,[1]; in vivo,Two
same,Infusion-related reactions occurring during the first infusion,[2]; % of the reactions,92%
same,Incidence of daratumumab infusion-related reactions of any grade,[2]; DRd arm,47.7%
same,Infusion-related event of grade 4 or 5,[2]; in vivo,no patient
same,Infusion-related reaction: cough,[2]; in vivo,8.5%
same,Infusion-related reaction: dyspnea,[2]; in vivo,8.5%
same,Infusion-related reaction: vomiting,[2]; in vivo,5.7%
same,Patients who discontinued daratumumab because of a grade 3 infusion-related event,[2]; in vivo,One
